One molecule from patent US20240158496A1 (Johns Hopkins, published 2024) can be followed below.

For assay [1], the target named is T1, recombinant human (rh) CEACAM-1 (human, UniProt P13688 35-428, limits assumed).
T1 construct: Recombinant protein used in the in vitro protein A pull-down
T1 sequence (looked up): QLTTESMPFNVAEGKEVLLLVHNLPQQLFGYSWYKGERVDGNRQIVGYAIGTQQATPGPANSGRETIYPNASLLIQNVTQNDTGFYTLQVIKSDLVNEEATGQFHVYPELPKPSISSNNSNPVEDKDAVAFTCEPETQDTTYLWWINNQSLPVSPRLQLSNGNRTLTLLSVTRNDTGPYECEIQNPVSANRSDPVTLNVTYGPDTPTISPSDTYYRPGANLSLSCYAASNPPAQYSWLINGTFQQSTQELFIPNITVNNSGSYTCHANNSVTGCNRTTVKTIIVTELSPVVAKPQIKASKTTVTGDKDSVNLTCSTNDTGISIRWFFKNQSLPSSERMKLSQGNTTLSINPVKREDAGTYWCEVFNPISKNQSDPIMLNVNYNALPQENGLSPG
Put plainly: protein A-agarose pull-down, CEACAM1 immunoblot. Here is the method:
The precipitated complexes were washed with immunoprecipitation buffer, re-suspended in NuPAGE sample buffer with reducing agent, boiled, resolved on a Bis-Tris Criterion XT Gel system and transferred to a PVDF membrane. Membranes were immunoblotted with primary antibodies [CEACAM1 (D1P4T); TIM3 (D5D5R™)] overnight, washed, incubated with secondary antibodies and visualized by Amersham ECL Western Blotting Detection Reagents. […] This assay is also used to evaluate the binding of any antibody-ligand trap comprising a ligand-binding sequence of a ligand-binding sequence of TIM-3 ectodomain(TIM-3ecd) to rh CEACAM-1.
In general terms: A western blot detects proteins with antibodies after separation by electrophoresis.

The target of assay [2] is T2, CEACAM-1 on co-stimulated human T cells (human, UniProt P13688 35-526).
T2 construct: whole, on cells; Endogenous protein
T2 sequence (looked up): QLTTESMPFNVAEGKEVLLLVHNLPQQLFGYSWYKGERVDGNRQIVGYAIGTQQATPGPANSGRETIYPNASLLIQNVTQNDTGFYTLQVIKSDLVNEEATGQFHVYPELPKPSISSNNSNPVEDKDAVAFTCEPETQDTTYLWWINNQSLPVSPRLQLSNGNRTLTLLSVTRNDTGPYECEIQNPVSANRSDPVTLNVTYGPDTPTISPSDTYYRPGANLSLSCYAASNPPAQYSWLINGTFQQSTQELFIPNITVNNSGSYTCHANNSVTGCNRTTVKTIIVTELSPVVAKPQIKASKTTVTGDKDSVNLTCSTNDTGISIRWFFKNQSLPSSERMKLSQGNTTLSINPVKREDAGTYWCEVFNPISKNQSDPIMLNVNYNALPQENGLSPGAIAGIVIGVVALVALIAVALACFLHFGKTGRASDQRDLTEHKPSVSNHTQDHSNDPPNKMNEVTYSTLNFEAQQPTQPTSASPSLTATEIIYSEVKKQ
Put plainly: protein A-agarose immunoprecipitation of lysates of co-stimulated human PBMC treated for 6 d, CEACAM1 immunoblot. How it is done: The precipitated complexes were washed with immunoprecipitation buffer, re-suspended in NuPAGE sample buffer with reducing agent, boiled, resolved on a Bis-Tris Criterion XT Gel system and transferred to a PVDF membrane. Membranes were immunoblotted with primary antibodies [CEACAM1 (D1P4T); TIM3 (D5D5R™)] overnight, washed, incubated with secondary antibodies and visualized by Amersham ECL Western Blotting Detection Reagents.

B1: α-PD1 mAb (nivolumab) (antibody)
heavy: not shown
light: not shown
notes: Parent antibody used as a control; also called α-PD1 antibody (nivolumab); a-PD1 mAb (nivolumab)
On to B1, for which the binding result is “no binding (tested: 10 µg antibody with 5 µg rhCEACAM-1)” in assay [1] and “no binding” in assay [2].
